Source: patent US20160046921A1

T1: Pro-Gly
T1 chain: PG

T2: Ala-Ala
T2 chain: AA

T3: Ala-Gly
T3 chain: AG

T4: Gly-Gly
T4 chain: GG

T5: H-Cys(Bzl)-Gly-OH (S-benzyl-Cys-Gly)
T5 chain: CG

T6: Z-Gly-Gly
T6 chain: GG

T7: cys-gly-conjugate (compound of formula FIII)
T7 chain: CG


What was measured:
Pro-Gly = target: T1, Pro-Gly
[1] = target: cys-gly-conjugate (compound of formula FIII); test: cell-based or functional assay
Ala-Ala = target: T2, Ala-Ala
Ala-Gly = target: T3, Ala-Gly
Gly-Gly = target: T4, Gly-Gly
[2] = target: T5, H-Cys(Bzl)-Gly-OH (S-benzyl-Cys-Gly)
Z-Gly-Gly = target: T6, Z-Gly-Gly
[3] = target: T7, cys-gly-conjugate (compound of formula …)

Binder | release of a free NH2 group (fluorescamine derivatisation) (Pro-Gly) | release of 3-sulfanyl-3-methyl-hexanol from the Cys-Gly-conjugate [mM]; 10 fold dilution of clear cell lysate, + β-lyase [1] [mM] | release of 3-sulfanyl-3-methyl-hexanol from the Cys-Gly-conjugate [mM]; 100 fold dilution of clear cell lysate, + β-lyase [1] [mM] | release of 3-sulfanyl-3-methyl-hexanol from the Cys-Gly-conjugate [mM]; 1000 fold dilution of clear cell lysate, + β-lyase [1] [mM] | Cleavage (thin layer chromatography) (Ala-Ala) | Cleavage (thin layer chromatography) (Ala-Gly) | Cleavage (thin layer chromatography) (Gly-Gly) | Cleavage (thin layer chromatography) [2] | Cleavage (thin layer chromatography) (Pro-Gly) | Cleavage (thin layer chromatography) (Z-Gly-Gly) | Cleavage (thin layer chromatography) [3] | release of 3-sulfanyl-3-methyl-hexanol from cys-gly-conjugate [mM] (gas chromatography) [3]
Ax20 peptidase (peptidase from Corynebacterium sp. Ax20, SEQ ID NO:2), recombinant, without histidine tag (enzyme) MSNDKAATSTNFNLTPNRERIFQELSELISHYSPHSMPEHADTHEEAAKWVTAKLEELGLDVTRHPTVDDADTIIGVKEPVGDAPTILLYSHYDVVPAQNPAVWTNDPLELDERDGRWYGRGAADCKGNVIMHLEALRMVQENGGTDLGLKVVMEGSEELGGEDGLGKLIDANPELFTADVIFIGDGGNVAVGIPTLTTHLRGGAQLRFKVDTLEGPVHSGGWGGAAPDAAHALIRIIDSFFDEHGRTTIEGVDTTAKWEGDPYDRETFRKDARVLDGVQLLGTVDDEPADMVWARPAITVIGFTSVPVEDATNIVNPTAEAQFNLRVPAPQSAAEVAKKVEEQIRARAPWGAKVEVSITGVNEPFSTDPNGPAVQHFGKCLQDAYGAEHLTVVGTGGSIPLTVTLQKHFPDAEFALYGVADPAANIHGVDESVDPTEIEHVAIAEAEFLLTYGK | Cleavage of the peptide substrate Pro-Gly by addition of the recombinant Ax20 peptidase (SEQ ID NO: 2) released a unique free NH2 group | 1 | 0.92 | 0.46 |  |  |  |  |  |  |  | 
Ax20 peptidase with histidine tag (SEQ ID NO:2 ligated to a 6x Histidine-Tag), recombinant (enzyme, not shown: small tags and cut ends) MSNDKAATSTNFNLTPNRERIFQELSELISHYSPHSMPEHADTHEEAAKWVTAKLEELGLDVTRHPTVDDADTIIGVKEPVGDAPTILLYSHYDVVPAQNPAVWTNDPLELDERDGRWYGRGAADCKGNVIMHLEALRMVQENGGTDLGLKVVMEGSEELGGEDGLGKLIDANPELFTADVIFIGDGGNVAVGIPTLTTHLRGGAQLRFKVDTLEGPVHSGGWGGAAPDAAHALIRIIDSFFDEHGRTTIEGVDTTAKWEGDPYDRETFRKDARVLDGVQLLGTVDDEPADMVWARPAITVIGFTSVPVEDATNIVNPTAEAQFNLRVPAPQSAAEVAKKVEEQIRARAPWGAKVEVSITGVNEPFSTDPNGPAVQHFGKCLQDAYGAEHLTVVGTGGSIPLTVTLQKHFPDAEFALYGVADPAANIHGVDESVDPTEIEHVAIAEAEFLLTYGK |  | 0.94 | 0.88 | 0.36 | ++ | ++ | + | +++ | + | - | +++ | 
β-lyase from Corynebacterium sp. Ax20 (cystathionine-β-lyase, metC gene product) (protein) MQFSNLDTLRTRGTRKWTQFDDDVIPMFVAESDFPTAPAIKEAIIDACEREMFGYTPAPHAHHLGEAVADFYDWRYGWRPDAAKIFPVADVVRGVLLAIQYFTDGDVIVPVPAYFPFLPIAEAAGRNRIDISSDKGLEGGLDMAEVEEAFKNGAGSIIVTNPFNPGGWMFTSEELDQICDIARRYKGRVLVDEIHAPLTYGKRHVCAAANNPDVCITVTATSKAWNVAGLKCAQMIFTNDEDVKTWNAINPVAKDGVGTLGIIAAEAAYESGREHLDWQVEQLKANRDWLVENLPSLIPGIRFEIPDATYLMFLDFKDTKLGVDKPAAYLLKHARVALSEGVDFGPGGEHRARMNFATSPEILKEATERIARAIEVV |  |  |  |  |  |  |  |  |  |  |  | < 0.03
